# Measurements reported in the supplement of paper PMC9170038.
# System: MS2 coat protein
# Test: apparent KD of MS2 coat protein; designed switch direction (-1 OFF switch, 1 ON switch): -1; higher = weaker reporter binding
# In short: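 RNA switches sharing common flanks were transcribed by stalled E. coli RNA polymerase on Illumina chips. A doubling series of SNAP-549-labelled MS2 coat protein, from 0.7 or 1.5 nM to 3 µM, was applied in Tris-HCl pH 7.5 buffer with KCl, MgCl2, BSA, DTT, tRNA and Tween-20. Each step lasted 0.8–1.5 h at the bottom of the series and 10–20 min at the top. Normalised cluster fluorescence was curve-fitted, giving apparent KD as the per-design median over clusters.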
# [1] = Eterna round: R95, input ligand: microRNA oligo, concentration not stated
# [2] = input ligand: microRNA oligo, concentration not stated
# [3] = Eterna round: R95, input ligand: FMN 200 uM
# [4] = Eterna round: R95, input ligand: none
Sequence,apparent KD of MS2 coat protein (input ligand: FMN 200 uM) [nM],apparent KD of MS2 coat protein (input ligand: none) [nM],apparent KD of MS2 coat protein [1] [nM],apparent KD of MS2 coat protein [2] [nM],apparent KD of MS2 coat protein [3] [nM],apparent KD of MS2 coat protein [4] [nM]
"GUAGAGUCAGGAUAUACAAGAUCGAAAGAUCAAAGAUCCAUACAUGAGGAUCACCCAUGUAGAAGGGACUCUAC [Eli x2 4.10] (Eterna round: R97, puzzle: Exclusion 2)",73.5,22.4,–,–,–,–
GUGCAAUGAGGAUAUACGUUGGUGAACAUCUGUGUGCUCCUACAUGAGGAUCACCCAUGUAGAAGGCAUGUCAC [LRO-Excl2-18] (puzzle: Exclusion 2),–,–,11.3,–,–,–
"ACGUGAGCUGAGGAUAUGCCACUAGCCCGCCUGGCAGAAGGCAGUACAUGAGGAUCACCCAUGUGCGUUGGGUG [Leintice] (Eterna round: R97, puzzle: Exclusion 6)",334,335,–,–,–,–
"AAAUAAAAACAAGCAAAACACAUGAGGAUCACCCAUGUAAAGGGUGAAGUUCGCACCCAAAAAUAAAAUAAAUAAAA [another turnoff var 1st] (Eterna round: R96, puzzle: Sensor v2, turn-off variant)",26.7,24.9,–,29.8,–,–
"UUGUACCGGUGAGGAUAUUUUUAAUAGAACUUUAUGAUAUACAUGAGGAUCACCCAUGUUACUUUAAAGAAGGCAUCGGAUUAU [JL JR Sub091 mod 1] (Eterna round: R96, puzzle: Exclusion NG 2)",–,–,–,12.9,–,–
"GUAGAGUCAGGAUAUACGAGAUCGAUAGAUCGGCGAUCCCUACAUGAGGAUCACCCAUGUAGAAGGGACUCUAC [Mat - Exclusion 2 - Eli Mod - D12] (Eterna round: R97, puzzle: Exclusion 2)",37.6,15.6,–,–,–,–
UUAUUUAGUGUGAGGAUAUGCUGGUCCUUGGAUCAGCAGAAGGCACAUGAGGAUCACCCAUGUAAUAUAUUAAU [JL bmx4 3.06] (puzzle: Brourd's mod of Exclusion 4),–,–,73.1,–,–,–
UUUGAUGUUGAGGAUAUGCUUUUUUUUAUUAUAGCAGAAGGCGAUACAUGAGGAUCACCCAUGUUCAUGGCUUU [JR_E6_Sub098] (puzzle: Exclusion 6),–,–,14.1,–,–,–
CCAGCGCGUGUGAGGAUAUGCUGGUCCUUGGAUCAGCAGAAGGCACAUGAGGAUCACCCAUGUGAGUGCGUUGG [JL bmx4 3.35] (puzzle: Brourd's mod of Exclusion 4),–,–,16.2,–,–,–
"AGUAACUAUCACGAAAGUGAUAGUUACAAACAAGUGGAAACAUGAGGAUCACCCAUGUCCUCAUUUGCUCGUCUUAU [Sensor 3 - 6] (puzzle: Sensor v3, turn-off variant 2)",–,–,556,–,574,503
"AAUUAAUUAAUUAAUUAAUACAUGAGGAUCACCCAUGUAAUUUAAGAUCCUUAUACAAGCUUUGAUCUCGUAAUUAA [Stov1/4-A1] (Eterna round: R97, puzzle: Sensor, turn-off variant 1)",98.9,93.8,–,–,–,–
"AGCAUGUGAGGAUAUGCGGACUCCGGUAAAGCUGGAGUCCAGUAGAAGGCACAUGAGGAUCACCCAUGUGAGAU [Uszadi] (Eterna round: R96, puzzle: Exclusion 4)",317,63.2,–,53.3,–,–
CCGGAAUAACAGGAUAUAGGAGUCGAUAGACACCUAGAAGGGUUGACAUGAGGAUCACCCAUGUGUCCUACCGG [Fiskers Ex 6 - 81] (puzzle: Exclusion 6),–,–,728,–,756,595
"ACAUGUCAUUGAGGAUAUUGCAAACAUGAGGAUCACCCAUGUAAACGGAUGCUCUUACGUGGGUUCGAGAAGGCGAUGUACAUU [Ex NG2 #93] (Eterna round: R96, puzzle: Exclusion NG 2)",930,242,–,39.8,–,–
GAGGAACAUGAGGAUCACCCAUGUGAGGAUAUGCAUAGUGAGGUAGUAGACGUUUAUUGCAGAAGGUACACUGA [JR_Exclu1_Sub079] (puzzle: Exclusion 1),–,–,25.6,–,–,–
"GUUUGACAUGAGGAUCACCCAUGUGAGGAUAUACGAUUAGCUGCUAGGUAGUUAGUAUGUAGAAGGUGCGUGUU [EX1 #69] (Eterna round: R97, puzzle: Exclusion 1)",97.9,117,–,–,–,–
"AUUCCUCCUGUUAGGAUAUGCAUCGGGCUUCCGCAGCAGAAGGAACAUGAGGAUCACCCAUGUCAAAUAAAAUC (Eterna round: R97, puzzle: Brourd's mod of Exclusion 4)",231,30.2,–,–,–,–
"UUCCUCACUUCUUUGUCUCACAUGAGGAUCACCCAUGUAAUAUAGGAUAUGCUUAGUAUUUCUAUGCAGAAGGAUAUUAGUUUU [JR_ExcNG3_Sub086] (Eterna round: R96, puzzle: Exclusion NG 3)",111,32.3,–,27.3,–,–

Sequence,apparent KD of MS2 coat protein (input ligand: FMN 200 uM) [nM],apparent KD of MS2 coat protein (input ligand: none) [nM],apparent KD of MS2 coat protein [1] [nM],apparent KD of MS2 coat protein [2] [nM],apparent KD of MS2 coat protein [3] [nM],apparent KD of MS2 coat protein [4] [nM]
"AGGUGCUUCAGGAGACAUGAGGAUCACCCAUGUUGAGUUAGCGAGGAUAUCGGUAACCCUUGUGAUGAGAAGGCGCAAACCAGU [Ex NG3 #45] (Eterna round: R96, puzzle: Exclusion NG 3)",39.5,29.1,–,14.4,–,–
CAGGAUAGAGGAUAUACAUAGAUACAGAUUCAUAUAAUCCUACAUGAGGAUCACCCAUGUAGAAGGCUAUCCUG [Fiskers Ex 2 - 25] (puzzle: Exclusion 2),–,–,14.5,–,–,–
"GGCACACAUGAGGAUCACCCAUGUGAGGAUAUGGUGCGAUCGUCGAAAGACGAUAGCACUAGAAGGCACAUGCC [Eli x1 4.06] (Eterna round: R97, puzzle: Exclusion 1)",28.2,16.1,–,–,–,–
GACUGCUGAGGAUAUACAUGAGGAUCACCCAUGUGCUUCAGUAUCGAAAGAUGCAUGGGUAGAAGGUGGUAGUC [LRO-Excl3-09] (puzzle: Exclusion 3),–,–,80.1,–,–,–
"AACAAGUCAGGAUAUGCCCUGAUAGACUUGAGGAUCACCCAAGUAAGUCUAUCUGGCUAAGCAGAAGGGACAAAAG [Usrabe] (Eterna round: R97, puzzle: Exclusion 5)",643,649,–,–,–,–
"CUAAUACAUCAGGAUAUGUGUCGUGAUAGCGACACAGAAGGGAUGACAUGAGGAUCACCCAUGUCAAAGGGUGA [eternacac ex6r4 sub23] (Eterna round: R97, puzzle: Exclusion 6)",388,519,–,–,–,–
"UAACAUGUAGAAGGAUAUCUGCACGAUUAGUGCAGAGAAGGUCUAACAUGAGGAUCACCCAUGUAGAUCAUUAAUUAAUUAAUU [ENG1/8-B1] (Eterna round: R96, puzzle: Exclusion NG 1)",15.2,12.4,–,8.43,–,–
"UUUUUCUCAGGAUAUACAUGAGGAUCACCCAUGUAUAUUAAUGAUAAUACAUGGGAAUGUAGAAGGGAGCUCAU [Omei Ex3 Pseudoloop 13] (Eterna round: R97, puzzle: Exclusion 3)",111,135,–,–,–,–
"AAGGGUACUUUCAGAACGACAUGAGGAUCACCCAUGUAGACUGAGGAUAUCUGCUACUAAGGACGGGAGAAGGCAGUGUAAUGU [Ex NG3 #74] (Eterna round: R96, puzzle: Exclusion NG 3)",10.6,14.2,–,11.1,–,–
"GCCUACGCAGGAUAUGUCCAGGGAAACAUGAGGAUCACCCAUGUGGAGUGGACUCGGGUUGCAGAAGGGCGGGCAC [Eternabot (Original) Solution 3] (Eterna round: R97, puzzle: Exclusion 5)",21.2,16,–,–,–,–
"CUUAUGUGAGGAUAUGGUGUUGGCCACAGGAAAAAGAUCCUCCAGAAGGCACAUGAGGAUCACCCAUGUAGUGA [Jolly's Folly 30 - Jieux - Exclusion 4] (Eterna round: R96, puzzle: Exclusion 4)",220,57.2,–,54.5,–,–
"GCGGACAAGAUAUAAAUAUCAGAGACAUGAGGAUCACCCAUGUAGGAUAUCGAUUCGAAACGAAUCGAGAAGGGCAUAGUCCGC [JL denovo 1] (Eterna round: R96, puzzle: Exclusion NG 3)",18.8,18.7,–,13.8,–,–
"UUCACAUGGACAUGAGAUCACAUGAGGAUCACCCAUGUGAAUAACAAGCUUUUUGCUCGUCUUAUGUCCAAUAAUAU [Stov1/14-C3] (Eterna round: R97, puzzle: Sensor, turn-off variant 1)",13.1,13.1,–,–,–,–
"ACAUGAGGAUCACCCAUGUCCGUCUGGUCUGUCUCGGCUGUCGAGGAUAUAGCUCGGUAUCCGCGCUAGAAGGCGGGAGUCGGA [Aenatbe mod 94] (Eterna round: R96, puzzle: Exclusion NG 3)",24.3,32.3,–,24.2,–,–
CUUCGACAUGAGGAUCACCCAUGUCAGGAUAUUGUUUAUCUGGUGUUGUCCAGAUAUGCAAGAAGGGAUGUGUG [LRO-Excl1-04] (puzzle: Exclusion 1),–,–,33.8,–,–,–
"GCUUUUCUUUUCCUUUCUUACAUGAGGAUCACCCAUGUUUCUUGUCGUGCUCGCGUUGCUCGUCUGUCUGUCUGUUG [salish99_TOv1_r3_077(!)] (puzzle: Sensor v3, turn-off variant 1)",–,–,35.1,–,44.4,50.8
GAAAAGAUAGGAUAUACAAGAAGAAAAGAAAAGAAAAGAAAACAUGAGGAUCACCCAUGUAGAAGGAUCAAAAG [Default title] (puzzle: Exclusion 2),–,–,13.5,–,15,15.5
